Measurements as given in US20050282739A1.
Square brackets hold non-standard residues; d marks the D form. Ends that are not written are not given here. Nle = CCCC[C@H](N)C(=O)O

Biological target: bombesin receptor of rat brain membranes (rat)
Experiment: 125I-Bombesin competition, rat brain membranes

| % Inhibition [%] | Binder |
| --- | --- |
| 5 | QWAVCHL-NH2 (also: bridge at 5 via oxorhenium(V) N3S1 chelate, other end not in the chain) [metallopeptide 11-7] |
| 59 | [dF]QWAVGCHLL-NH2 (bridge (positions not given here) via ReOCl3(PPh3)2; also: oxorhenium(V) N3S1 tetradentate complex at Cys 7) [metallopeptide 8-4] |
| 13 | WAVCHL-NH2 (also: bridge at 4 via oxorhenium(V) N3S1 chelate, other end not in the chain) [metallopeptide 11-8] |
| 39 | [dF]QWAVGHLLC-NH2 (bridge (positions not given here) via ReOCl3(PPh3)2; also: oxorhenium(V) N3S1 tetradentate complex at Cys 10) [metallopeptide 8-1] |
| 75 | [dF]QWAVCHLL-NH2 (not fully specified (bridges); printed as D-Phe-Gln-Trp-Ala-Val-Cys-His-Leu-Leu-NH2; also: Re(V)=O complexed at Cys (N3S1 chelate)) [metallopeptide 9-4] |
| 18 | WAVCHLL-NH2 (also: bridge at 4 via oxorhenium(V) N3S1 chelate, other end not in the chain) [metallopeptide 11-5] |
| 17 | [dF]QWACGHLL-NH2 (not fully specified (bridges); printed as D-Phe-Gln-Trp-Ala-Cys-Gly-His-Leu-Leu-NH2; also: Re(V)=O complexed at Cys (N3S1 chelate)) [metallopeptide 9-5] |
| -50 | QWAVC-NH2 (also: bridge at 5 via oxorhenium(V) N3S1 chelate, other end not in the chain) [metallopeptide 11-13] |
| 25 | [dF]QWAVCH-NH2 (bridge (positions not given here) via ReOCl3(PPh3)2; also: oxorhenium(V) N3S1 tetradentate complex at Cys 6) [metallopeptide 11-2] |
| 8 | [dF]QWCAVGHLL-NH2 (not fully specified (bridges); printed as D-Phe-Gln-Trp-Cys-Ala-Val-Gly-His-Leu-Leu-NH2; also: oxorhenium(V) N3S1 tetradentate complex at Cys 4) [metallopeptide 8-7] |
| -1 | WAVCH-NH2 (also: bridge at 4 via oxorhenium(V) N3S1 chelate, other end not in the chain) [metallopeptide 11-11] |
| 93 | XQRLGCQWAVGHLX (Pyr 1; Nle 14; C-terminal amide; Re complexed at Cys 6) [metallopeptide 7-9] |
| 70 | [dF]QWAVGCLL-NH2 (not fully specified (bridges); printed as D-Phe-Gln-Trp-Ala-Val-Gly-Cys-Leu-Leu-NH2; also: Re(V)=O chelate (N3S1) at Cys7) [metallopeptide 9-3] |
| 70 | [dF]QWAVCGHLL-NH2 (bridge (positions not given here) via ReOCl3(PPh3)2; also: oxorhenium(V) N3S1 tetradentate complex at Cys 6) [metallopeptide 8-5] |
| 7 | AVCHL-NH2 (also: bridge at 3 via oxorhenium(V) N3S1 chelate, other end not in the chain) [metallopeptide 11-9] |
| 95 | XQRCGNQWAVGHLX (Pyr 1; Nle 14; C-terminal amide; Re complexed at Cys 4) [metallopeptide 7-11] |
| 7 | [dF]QWA[dV]CHLL-NH2 (bridge (positions not given here) via ReOCl3(PPh3)2; also: oxorhenium(V) N3S1 tetradentate complex at Cys 6) [metallopeptide 10-3] |
| 62 | [dF]QCWAVGHLL-NH2 (not fully specified (bridges); printed as D-Phe-Gln-Cys-Trp-Ala-Val-Gly-His-Leu-Leu-NH2; also: Re(V)=O chelate (N3S1) at Cys3) [metallopeptide 8-8] |

| % Inhibition [%] | Binder |
| --- | --- |
| 6 | AVCHLL-NH2 (also: bridge at 3 via oxorhenium(V) N3S1 chelate, other end not in the chain) [metallopeptide 11-6] |
| 98 | [dF]QWAVCHL-NH2 (bridge (positions not given here) via ReOCl3(PPh3)2; also: oxorhenium(V) N3S1 tetradentate complex at Cys 6) [metallopeptide 11-1] |
| 35 | [dF]QWACVGHLL-NH2 (not fully specified (bridges); printed as D-Phe-Gln-Trp-Ala-Cys-Val-Gly-His-Leu-Leu-NH2; also: oxorhenium(V) N3S1 tetradentate complex at Cys 5) [metallopeptide 8-6] |
| 10 | [dF]QWAVC[dH]LL-NH2 (bridge (positions not given here) via ReOCl3(PPh3)2; also: oxorhenium(V) N3S1 tetradentate complex at Cys 6) [metallopeptide 10-1] |
| 19 | [dF]QCAVGHLL-NH2 (not fully specified (bridges); printed as D-Phe-Gln-Cys-Ala-Val-Gly-His-Leu-Leu-NH2; also: Re(V)=O complexed at Cys (N3S1 chelate)) [metallopeptide 9-7] |
| 35 | [dF]QWAVGHCL-NH2 (not fully specified (bridges); printed as D-Phe-Gln-Trp-Ala-Val-Gly-His-Cys-Leu-NH2; also: Re(V)=O chelate (N3S1) at Cys8) [metallopeptide 9-2] |
| 2 | [dF]QW[dA]VCHLL-NH2 (bridge (positions not given here) via ReOCl3(PPh3)2; also: oxorhenium(V) N3S1 tetradentate complex at Cys 6) [metallopeptide 10-4] |
| 5 | AVCH-NH2 (also: bridge at 3 via oxorhenium(V) N3S1 chelate, other end not in the chain) [metallopeptide 11-12] |
| 43 | [dF]QWCVGHLL-NH2 (not fully specified (bridges); printed as D-Phe-Gln-Trp-Cys-Val-Gly-His-Leu-Leu-NH2; also: Re(V)=O complexed at Cys (N3S1 chelate)) [metallopeptide 9-6] |
| 92 | [dF]QWAVGHLL-NH2 (N-terminus assumed; SMILES CC(C)C[C@H](NC(=O)[C@H](CC(C)C)NC(=O)[C@H](Cc1c[nH]cn1)NC(=O)CNC(=O)[C@@H](NC(=O)[C@H](C)NC(=O)[C@H](Cc1c[nH]c2ccccc12)NC(=O)[C@H](CCC(N)=O)NC(=O)[C@H](N)Cc1ccccc1)C(C)C)C(N)=O) [bombesin analog parent polypeptide D-Phe-Gln-Trp-Ala-Val-Gly-His-Leu-Leu-NH2] |
| 75 | [dF]QWAVGHLCL-NH2 (bridge (positions not given here) via ReOCl3(PPh3)2; also: oxorhenium(V) N3S1 tetradentate complex at Cys 9) [metallopeptide 8-2] |
| 86 | [dF]QWAVGHLC-NH2 (not fully specified (bridges); also: Re(V)=O chelate (N3S1) at Cys9) [metallopeptide 9-1] |
| 96 | Ac-AQCLGNQWAVGHL[Nle]-NH2 (also: Re(V)=O N3S1 chelate at Cys3 (from ReOCl3(PPh3)2)) [metallopeptide 7-12] |
| 6 | [dF]Q[dW]AVCHLL-NH2 (bridge (positions not given here) via ReOCl3(PPh3)2; also: oxorhenium(V) N3S1 tetradentate complex at Cys 6) [metallopeptide 10-5] |
| 49 | [dF]QWAVGHCLL-NH2 (bridge (positions not given here) via ReOCl3(PPh3)2; also: oxorhenium(V) N3S1 tetradentate complex at Cys 8) [metallopeptide 8-3] |
| -81 | [dF]QWAVC-NH2 (bridge (positions not given here) via ReOCl3(PPh3)2; also: oxorhenium(V) N3S1 tetradentate complex at Cys 6) [metallopeptide 11-3] |
| 25 | QWAVCHLL-NH2 (also: bridge at 5 via oxorhenium(V) N3S1 chelate, other end not in the chain) [metallopeptide 11-4] |
